We go through 5 molecules from patent publication US20220356267A1 (JIANGSU KANION PHARMACEUTICAL, published 2022).

First the molecules themselves.
B1: anti-CD73 monoclonal antibody E1-B6 (antibody, V domains shown)
VH: VKLQESGAELARPGASVKLSCKASGYTFTDYYINWVKQRTGQGLEWIGETYPGNGNTYYHEKFKGKATLTADRSSSTAYMQLSSLTSEDSAVYFCARGTYYGSSEYFDYWGQGTTVTVSS
VL: DIVMTQSPKFMSTSVGDRVSITCKASQNVGTAVAWYQQRPGQSPKLLIYSASNRNTGVPDRFTGSGSGTDFTLTISNMQSEDLADYFCQQYSSYIFTFGSGTKLEIN
notes: Mouse hybridoma antibody of the IgG type, purified from ascitic fluid
B2: anti-CD73 monoclonal antibody 81-2-2 (antibody, V domains shown)
VH: QVQLQQPGAELVKPGASVKLSCKASGYTFTSYWMHWVKQRPGQGLEWIGEINPSNGRTNYNEKFKSKATLTVDKSSSTAYMQLSSLTSEDSAVYYCARRGTSGNFFDYWGQGTTLTVSS
VL: DIKMTQSPSSMYASLGERVTITCKASQDINTYLSWFQQKPGKSPKTLIYRANRLVDGVPSRFSGSGSGQDYSLTISSLEYEDMGIYYCLQFDEFPYTFGGGTKLEIK
notes: as for B1
B3: anti-CD73 monoclonal antibody F2-2 (antibody, V domains shown)
VH: VQLQESGPGLVKPSQSLSLTCTVTGHSITSDYVWNWIRQFPGNKLEWMGYISYSGIIKYNPSLKSRISITRDTSKNQFFLQLNSVTTEDTATYYCAGDEYFWFAYWGQGTTVTVSS
VL: DIQMTQSPSSMYASLGERVTITCKASQDIKSYLSWYQQKPWKSPKTLIYYATNLADGVPSRFSGSGSGQDYSLTISSLESDDTATYYCLQHGESPYTFGGGTKLEIK
notes: as for B1
B4: anti-CD73 monoclonal antibody 9-4 (antibody, V domains shown)
VH: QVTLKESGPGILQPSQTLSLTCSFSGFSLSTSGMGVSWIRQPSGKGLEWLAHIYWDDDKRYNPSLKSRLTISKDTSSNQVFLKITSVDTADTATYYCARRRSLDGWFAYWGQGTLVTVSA
VL: DIQMTQSPAALSASVGETVTITCRASGNIHNYLAWYQQKQGKSPQLLVYNTQILADGVPSRFSGSGSGTQYSLKINSLQPEDFGTFYCQHFWDSPWTFGGGTKMEIK
notes: as for B1
B5: anti-CD73 monoclonal antibody 06-6 (antibody, V domains shown)
VH: QVQLQQSGPELVKPGASVRISCKASGYTFADYFMHWVRLRPGQGLEWIGWIYPGYVNIKYNEKFKGKATLTADKSSSTAYMQLSSLTSEDSAVYFCARGEDYDSAMDYWGQGTSVTVSS
VL: GVVMTQTPLSLPVSLGDQASISCRSSQSLVHSNGNTYLHWYLQKPGQSPKLLIYKVSNRFSGVPDRFSGSGSGTDFTLKISRVEAEDLGVYFCSQSTHVPPWTFGGGTKLEIK
notes: as for B1

A word on the koff: it is the first-order rate constant of dissociation. A word on the Kd: it is a measure of binding affinity in units of concentration. In general, kon refers to a measure of how fast the partners come together.

In the first assay the target is T1, recombinant human CD73 protein (ecto-5'-nucleotidase), expressed by the applicant, C-terminal 6x His tag (human, UniProt P21589 27-547).
T1 sequence: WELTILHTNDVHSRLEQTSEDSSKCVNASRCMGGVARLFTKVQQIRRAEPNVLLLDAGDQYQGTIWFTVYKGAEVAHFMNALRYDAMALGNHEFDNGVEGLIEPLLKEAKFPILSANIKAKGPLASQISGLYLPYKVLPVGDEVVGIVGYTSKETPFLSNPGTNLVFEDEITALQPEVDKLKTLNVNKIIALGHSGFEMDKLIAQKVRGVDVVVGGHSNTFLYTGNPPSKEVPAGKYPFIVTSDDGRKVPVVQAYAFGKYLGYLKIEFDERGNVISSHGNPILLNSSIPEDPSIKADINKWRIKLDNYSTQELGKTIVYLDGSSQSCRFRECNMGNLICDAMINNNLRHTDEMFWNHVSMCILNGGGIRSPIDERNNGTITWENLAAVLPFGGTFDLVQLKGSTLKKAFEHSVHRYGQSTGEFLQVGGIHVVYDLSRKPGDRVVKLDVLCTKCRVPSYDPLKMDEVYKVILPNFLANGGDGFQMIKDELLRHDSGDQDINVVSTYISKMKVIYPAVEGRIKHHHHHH
The assay is described as follows: SPR (Biacore T200), antibody captured on anti-mouse Fc IgG chip, human CD73 injected in a concentration series, 25 C, 1:1 fit; the sheet prints E-4 where the 1st table, row 5, column 4 prints 10^-5; E-4 agrees with the printed ka 4.764E+5 and KD 8.129E-10. (SPR reads the build-up and loss of mass on a sensor chip optically.)
Protocol: (§1) Anti-mouse Fc IgG was fixated on a CMS sensor chip by amine coupling in order to capture the antibody under test with the coupled anti-mouse Fc IgG. A series of human CD73 proteins having a predetermined concentration gradient were then injected, before the pH 1.7 glycine-HCl regeneration testing system that came with the reagent kit was used.
(§2) HBS-EP+ (10 mM HEPES; pH7.4, 150 mM NaCl; 3 mM EDTA; and 0.05% P20) was used as the running buffer, and the testing temperature was 25° C.
(§3) The binding constant (Ka), dissociation rate constant (Kd), and equilibrium constant (KD) were calculated with the Biacore T200 evaluation software by combining the model fitting data at a 1:1 ratio.
Turning to B1, the dissociation rate constant (koff) is 0.000387 s⁻¹.

A further assay has as its target T1, recombinant human CD73 protein …. The assay is described as follows: cell-based or functional assay.
B2: the “EC50 (µg/mL), Biochemical level, inhibition of the enzyme activity of CD73” value turned out to be 0.239 µg/mL.
Same read-out and setting: next, B1: 0.232 µg/mL; B3: 0.109 µg/mL.
Same read-out and setting: for B4 the value was 0.211 µg/mL; for B5, 0.206 µg/mL.

A further assay addresses T2, CD73 on A549 cells (UniProt P21589 27-549, limits assumed).
T2 sequence (looked up): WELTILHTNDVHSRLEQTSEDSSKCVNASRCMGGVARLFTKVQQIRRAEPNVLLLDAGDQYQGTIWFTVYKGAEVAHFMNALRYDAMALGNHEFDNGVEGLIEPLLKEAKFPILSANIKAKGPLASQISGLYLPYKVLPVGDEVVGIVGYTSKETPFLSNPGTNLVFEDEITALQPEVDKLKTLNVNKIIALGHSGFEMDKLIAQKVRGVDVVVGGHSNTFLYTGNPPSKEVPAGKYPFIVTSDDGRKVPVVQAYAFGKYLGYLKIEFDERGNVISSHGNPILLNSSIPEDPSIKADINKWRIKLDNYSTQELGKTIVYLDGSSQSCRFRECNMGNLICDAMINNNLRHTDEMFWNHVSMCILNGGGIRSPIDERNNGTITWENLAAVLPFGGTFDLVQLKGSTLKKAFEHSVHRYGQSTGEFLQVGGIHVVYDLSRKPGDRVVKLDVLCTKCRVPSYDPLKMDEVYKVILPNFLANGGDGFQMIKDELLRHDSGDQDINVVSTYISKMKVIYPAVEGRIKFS
The assay is described as follows: cell-based or functional assay.
In the case of B2, the “EC50 (µg/mL), Cell level (A549 cells), inhibition of the enzyme activity of CD73” value was 0.213 µg/mL.
On the same count and under the same terms, next, B1: 0.182 µg/mL.
Still for that read-out and setting: for B3 the value was 0.0397 µg/mL; for B4, 0.175 µg/mL.
Consider B5, for which the “EC50 (µg/mL), Cell level (A549 cells), inhibition of the enzyme activity of CD73” value stood at 0.147 µg/mL.

Another assay deals with T1, recombinant human CD73 protein …. The experiment in a line: SPR, Biacore T200, antibody captured by anti-mouse Fc IgG, human CD73 injected, 25 °C, 1:1 fit.
Protocol: as §1, §2, §3
Consider B2, for which the Kd stood at 490 pM, the koff amounted to 0.000104 s⁻¹ and the association rate constant (kon) turned out to be 212000 M⁻¹ s⁻¹.
As for B1, the Kd was found to be 813 pM, the koff worked out at 0.000387 s⁻¹ and the kon is 476000 M⁻¹ s⁻¹.
In the case of B3, the Kd is 31.8 pM, the koff came out at 1.71e-05 s⁻¹ and the kon was determined as 538000 M⁻¹ s⁻¹.
Turning to B4, the Kd is 452 pM, the koff was 0.00015 s⁻¹ and the kon is 332000 M⁻¹ s⁻¹.
Regarding B5, the Kd was 753 pM, the koff came out at 0.000183 s⁻¹ and the on-rate (kon) was found to be 242000 M⁻¹ s⁻¹.
